Assays:
Assay in all cases: two-hybrid library CCNG1;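 note: natural log of median RNA to DNA barcode read ratio; higher means stronger binding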
4H3858-bA = molecular target: T1, 4H3858-bA
T1 chain: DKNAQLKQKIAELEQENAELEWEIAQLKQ

4H850-bA = molecular target: T2, 4H850-bA
T2 chain: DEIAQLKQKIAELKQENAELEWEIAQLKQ

4H626-bA = molecular target: T3, 4H626-bA
T3 chain: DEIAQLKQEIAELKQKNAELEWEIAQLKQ

4H3277-bA = molecular target: T4, 4H3277-bA
T4 chain: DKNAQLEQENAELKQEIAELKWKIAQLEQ

4H584-bA = molecular target: T5, 4H584-bA
T5 chain: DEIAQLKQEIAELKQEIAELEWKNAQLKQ

O14-bA = molecular target: T6, O14-bA
T6 chain: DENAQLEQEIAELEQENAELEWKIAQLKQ

4H3175-bA = molecular target: T7, 4H3175-bA
T7 chain: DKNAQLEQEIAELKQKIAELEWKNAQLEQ

4H3638-bA = molecular target: T8, 4H3638-bA
T8 chain: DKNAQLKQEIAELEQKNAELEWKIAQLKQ

4H3129-bA = molecular target: T9, 4H3129-bA
T9 chain: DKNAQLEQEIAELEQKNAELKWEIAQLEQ

4H1804-bA = molecular target: T10, 4H1804-bA
T10 chain: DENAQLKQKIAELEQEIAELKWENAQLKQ

4H3631-bA = molecular target: T11, 4H3631-bA
T11 chain: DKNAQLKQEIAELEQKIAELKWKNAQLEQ

4H3613-bA = molecular target: T12, 4H3613-bA
T12 chain: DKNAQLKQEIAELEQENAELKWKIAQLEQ

4H3817-bA = molecular target: T13, 4H3817-bA
T13 chain: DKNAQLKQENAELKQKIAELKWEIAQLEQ

4H3162-bA = molecular target: T14, 4H3162-bA
T14 chain: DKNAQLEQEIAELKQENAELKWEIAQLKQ

4H3298-bA = molecular target: T15, 4H3298-bA
T15 chain: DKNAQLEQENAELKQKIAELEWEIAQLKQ

4H1985-bA = molecular target: T16, 4H1985-bA
T16 chain: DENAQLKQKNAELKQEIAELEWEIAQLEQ

4H906-bA = molecular target: T17, 4H906-bA
T17 chain: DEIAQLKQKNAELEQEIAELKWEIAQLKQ

4H3497-bA = molecular target: T18, 4H3497-bA
T18 chain: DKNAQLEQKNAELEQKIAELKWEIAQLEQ

4H3855-bA = molecular target: T19, 4H3855-bA
T19 chain: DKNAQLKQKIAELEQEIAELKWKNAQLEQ

4H3172-bA = molecular target: T20, 4H3172-bA
T20 chain: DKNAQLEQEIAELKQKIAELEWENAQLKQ

4H1710-bA = molecular target: T21, 4H1710-bA
T21 chain: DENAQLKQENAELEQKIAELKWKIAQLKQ

4H619-bA = molecular target: T22, 4H619-bA
T22 chain: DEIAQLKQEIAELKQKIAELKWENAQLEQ

4H591-bA = molecular target: T23, 4H591-bA
T23 chain: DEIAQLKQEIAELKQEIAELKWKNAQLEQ

4H3926-bA = molecular target: T24, 4H3926-bA
T24 chain: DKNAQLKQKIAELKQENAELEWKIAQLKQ

4H570-bA = molecular target: T25, 4H570-bA
T25 chain: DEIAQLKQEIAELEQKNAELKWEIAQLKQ

4H3414-bA = molecular target: T26, 4H3414-bA
T26 chain: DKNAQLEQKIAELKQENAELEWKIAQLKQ

4H3974-bA = molecular target: T27, 4H3974-bA
T27 chain: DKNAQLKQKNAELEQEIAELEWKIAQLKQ

4H1899-bA = molecular target: T28, 4H1899-bA
T28 chain: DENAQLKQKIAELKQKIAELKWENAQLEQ

4H3628-bA = molecular target: T29, 4H3628-bA
T29 chain: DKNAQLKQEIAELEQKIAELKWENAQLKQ

4H3462-bA = molecular target: T30, 4H3462-bA
T30 chain: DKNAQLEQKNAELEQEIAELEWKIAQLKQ

4H1985-bH = molecular target: T31, 4H1985-bH
T31 chain: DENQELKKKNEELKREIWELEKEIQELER

4H850-bH = molecular target: T32, 4H850-bH
T32 chain: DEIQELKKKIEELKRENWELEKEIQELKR

4H3974-bH = molecular target: T33, 4H3974-bH
T33 chain: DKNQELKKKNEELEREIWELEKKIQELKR

4H1804-bH = molecular target: T34, 4H1804-bH
T34 chain: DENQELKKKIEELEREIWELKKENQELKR

4H570-bH = molecular target: T35, 4H570-bH
T35 chain: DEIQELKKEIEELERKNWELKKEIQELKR

4H3638-bH = molecular target: T36, 4H3638-bH
T36 chain: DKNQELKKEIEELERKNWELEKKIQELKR

4H3631-bH = molecular target: T37, 4H3631-bH
T37 chain: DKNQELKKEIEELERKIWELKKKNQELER

4H3172-bH = molecular target: T38, 4H3172-bH
T38 chain: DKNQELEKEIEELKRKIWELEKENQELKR

4H3414-bH = molecular target: T39, 4H3414-bH
T39 chain: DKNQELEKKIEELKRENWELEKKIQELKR

4H906-bH = molecular target: T40, 4H906-bH
T40 chain: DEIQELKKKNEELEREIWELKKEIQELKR

4H3129-bH = molecular target: T41, 4H3129-bH
T41 chain: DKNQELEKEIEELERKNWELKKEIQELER

4H584-bH = molecular target: T42, 4H584-bH
T42 chain: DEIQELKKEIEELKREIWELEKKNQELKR

4H3817-bH = molecular target: T43, 4H3817-bH
T43 chain: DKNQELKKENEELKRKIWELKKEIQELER

4H619-bH = molecular target: T44, 4H619-bH
T44 chain: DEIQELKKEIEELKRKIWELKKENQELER

P5mSN = molecular target: T45, P5mSN
T45 chain: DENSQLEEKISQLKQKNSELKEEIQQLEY

P4mSN = molecular target: T46, P4mSN
T46 chain: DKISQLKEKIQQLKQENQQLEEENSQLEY

P7mSN = molecular target: T47, P7mSN
T47 chain: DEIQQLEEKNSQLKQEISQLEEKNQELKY

P9mSN = molecular target: T48, P9mSN
T48 chain: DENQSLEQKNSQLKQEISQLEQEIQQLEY

P6mSN = molecular target: T49, P6mSN
T49 chain: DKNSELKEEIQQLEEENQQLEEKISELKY

P8mSN = molecular target: T50, P8mSN
T50 chain: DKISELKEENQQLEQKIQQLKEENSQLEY

Question: Which results are given for DENAQLKQENAELEQKIAELKWKIAQLKQ [4H1710-bA]?
Answer: interaction score (4H3858-bA): 0.318; interaction score (4H850-bA): 0.0118; interaction score (4H626-bA): -0.621; interaction score (4H3277-bA): -0.282; interaction score (4H584-bA): -0.0679; interaction score (O14-bA): -1.06; interaction score (4H3175-bA): -0.421; interaction score (4H3638-bA): 0.729; interaction score (4H3129-bA): 0.367; interaction score (4H1804-bA): -0.669; interaction score (4H3631-bA): 1.48; interaction score (4H3613-bA): 0.262; interaction score (4H3817-bA): 1.53; interaction score (4H3162-bA): -0.713; interaction score (4H3298-bA): 0.819; interaction score (4H1985-bA): 2.11; interaction score (4H906-bA): 0.904; interaction score (4H3497-bA): 1.01; interaction score (4H3855-bA): 0.515; interaction score (4H3172-bA): -0.97; interaction score (4H1710-bA): 0.102; interaction score (4H619-bA): 0.519; interaction score (4H591-bA): -1.11; interaction score (4H3926-bA): 0.352; interaction score (4H570-bA): -1.24; interaction score (4H3414-bA): -0.541; interaction score (4H3974-bA): 1.34; interaction score (4H1899-bA): -0.115; interaction score (4H3628-bA): 0.848; interaction score (4H3462-bA): 1.04

Question: Which results are given for DENQELKKKIEELEREIWELKKENQELKR [4H1804-bH]?
Answer: interaction score (4H1985-bH): 0.0377; interaction score (4H850-bH): -0.238; interaction score (4H3974-bH): -0.359; interaction score (4H1804-bH): 0.525; interaction score (4H570-bH): -0.192; interaction score (4H3638-bH): -0.512; interaction score (4H3631-bH): -0.276; interaction score (4H3172-bH): -0.154; interaction score (4H3414-bH): -0.0322; interaction score (4H906-bH): -0.842; interaction score (4H3129-bH): -0.437; interaction score (4H584-bH): 0.198; interaction score (4H3817-bH): -0.0504; interaction score (4H619-bH): -0.693

Question: How did the interaction score (P5mSN) turn out when DKISQLKEKIQQLKQENQQLEEENSQLEY [P4mSN] was run?
Answer: The interaction score was -1.42.

Question: What about the interaction score (P4mSN) of the same binder?
Answer: The interaction score was -1.76.

Question: And the interaction score (P7mSN)?
Answer: The interaction score was -1.04.

Question: What about the interaction score (P9mSN) of the same binder?
Answer: The interaction score was -1.07.

Question: What about the interaction score (P6mSN) of the same binder?
Answer: Its interaction score is -0.838.

Question: What about the interaction score (P8mSN) of the same binder?
Answer: The interaction score was -1.53.

— article PMC10397247
